According to article PMC3874396:

Legend:
[1] = molecular target: SRP with fluorescein-labeled Ffh(C421) (Escherichia coli) (UniProt P0AGD7); experiment: […]
[2] = molecular target: RNC^EspP-Hydro-SRP complex (SRP with DACM-labeled Ffh(C235), loaded with RNC^EspP-Hydro) (Escherichia coli | not stated) (UniProt P0AGD7); experiment: FRET or BRET
[3] = molecular target: RNC^EspP-SRP complex (SRP with DACM-labeled Ffh(C235), loaded with RNC^EspP) (Escherichia coli | not stated) (UniProt P0AGD7); experiment: FRET or BRET

Substance “RNC^EspP (ribosome-nascent chain complex displaying the EspP signal sequence) (from UniProt Q7BSW5 56-88)” has a Kd [1] of 13.6 nM.

“BODIPY-FL (acceptor)-labeled FtsY(C487) (from UniProt P10121 1-497) (receptor)” gave a Kd [2] of 300 nM, a kon [2] of 15200 M⁻¹ s⁻¹ and a Kd [3] of 311 nM. The kon [3] was 9200 M⁻¹ s⁻¹.
